PMC12407261

How the values were obtained:
[1] = target: Streptomyces lydicus Family 2B encapsulin shell protein Sl‐Enc2 with N‐terminal His‐tag (Streptomyces lydicus); test: cryo-EM structure; Sl‐Enc2 majority mixed sample, 2 mg/mL in 150 mM NaCl, 25 mM Tris pH 8.0; consensus refinement with icosahedral symmetry imposed, 2.59 Å
[2] = target: Streptomyces lydicus Family 2B encapsulin shell protein Sl‐Enc1 with N‐terminal His‐tag (Streptomyces lydicus); test: affinity purification with mass spectrometry; two-gene operon co-expressed in E. coli BL21 (DE3), only one of the two shell proteins His-tagged; Ni-NTA then SEC; SDS-PAGE bands identified by tryptic digest and LC-MS; ratio by gel densitometry

Substance	stoichiometry N [1]	apparent share of Sl‐Enc1 in the purified mixed shells (gel densitometry) [2]	apparent share of Sl‐Enc2 in the purified mixed shells (gel densitometry) [2]
Streptomyces lydicus Family 2B encapsulin shell protein Sl‐Enc2 with N‐terminal His‐tag (natural protein)	60	–	–
Streptomyces lydicus Family 2B encapsulin shell protein Sl‐Enc2, untagged (natural protein)	–	60%	40%
